Measured values: patent US20120040938A1, “GLUCOCORTICOID RECEPTOR ALLELES AND USES THEREOF” (SHRINERS HOSPITAL FOR CHILDREN, priority 2009, published 2012)
Numbering of substitutions follows the chain as printed. In names and notes the source's numbering stands.

Test system: GRE (glucocorticoid response element)-Luciferase reporter
Assay: GRE-luciferase reporter assay of transactivation potential of reconstructed GR alleles co-transfected into HEK 293 cells
Assay type: cell-based, human
Text: An exemplary assay for determining the transactivation potential of a GR polypeptide is described below. The GR nucleic acid sequence encoding the GR polypeptide of interest can be cloned into a first vector (e.g., pcDNA4, Invitrogen, Carlsbad, Calif.). A second vector can be constructed to contain a reporter gene, e.g., the luciferase gene, under the control of a GRE. These two vectors can be co-transfected into a cell, e.g., a human embryonic kidney cell (HEK 293). Skilled practitioners will recognize that a number of cell types can be used to test whether a GR polypeptide is functional. The cell will then express the GR polypeptide encoded by the GR nucleic acid sequence on the first vector. […] The product of the reporter gene, e.g., luciferase, can then be detected and quantified using conventional methods. For example, when a luciferin substrate is added, luciferase will produce luminescence that can be detected and quantified. […]
The reconstructed GR allele expression plasmids described above were co-transfected with a GRE (glucocorticoid response element)-Luciferase reporter plasmid (Stratagene) using Fugene HD/6 (Roche) into HEK (human embryonic kidney) 293 cells, grown in Dulbecco's Modified Eagle Medium with 10% fetal bovine serum and 1% Penicillin/Streptomycin (Invitrogen.). […] The differences in luminescence were graphed and analyzed.

B1: allele 66-63: Full-length human GR with substitutions N72D, V321A, R460K, F749G (protein, UniProt P04150 1-777, looked up, variant N72D V321A R460K F749G)
Glucocorticoid receptor: MDSKESLTPGREENPSSVLAQERGDVMDFYKTLRGGATVKVSASSPSLAVASQSDSKQRRLLVDFPKGSVSDAQQPDLSKAVSLSMGLYMGETETKVMGNDLGFPQQGQISLSSGETDLKLLEESIANLNRSTSVPENPKSSASTAVSAAPTEKEFPKTHSDVSSEQQHLKGQTGTNGGNVKLYTTDQSTFDILQDLEFSSGSPGKETNESPWRSDLLIDENCLLSPLAGEDDSFLLEGNSNEDCKPLILPDTKPKIKDNGDLVLSSPSNVTLPQVKTEKEDFIELCTPGVIKQEKLGTVYCQASFPGANIIGNKMSAISAHGVSTSGGQMYHYDMNTASLSQQQDQKPIFNVIPPIPVGSENWNRCQGSGDDNLTSLGTLNFPGRTVFSNGYSSPSMRPDVSSPPSSSSTATTGPPPKLCLVCSDEASGCHYGVLTCGSCKVFFKRAVEGQHNYLCAGKNDCIIDKIRRKNCPACRYRKCLQAGMNLEARKTKKKIKGIQQATTGVSQETSENPGNKTIVPATLPQLTPTLVSLLEVIEPEVLYAGYDSSVPDSTWRIMTTLNMLGGRQVIAAVKWAKAIPGFRNLHLDDQMTLLQYSWMFLMAFALGWRSYRQSSANLLCFAPDLIINEQRMTLPCMYDQCKHMLYVSSELHRLQVSYEEYLCMKTLLLLSSVPKDGLKSQELFDEIRMTYIKELGKAIVKREGNSSQNWQRFYQLTKLLDSMHEVVENLLNYCFQTFLDKTMSIEGPEMLAEIITNQIPKYSNGNIKKLLFHQK
FIG. 5
  luciferase activity (transactivation potential), in words: very low level

B2: allele 66-62: Full-length human GR with substitutions N72D, V321A, N766S (protein, UniProt P04150 1-777, looked up, variant N72D V321A N766S)
Glucocorticoid receptor: B1 Glucocorticoid receptor with K460R, G749F, N766S
Medium with 10% fetal bovine serum, FIG. 5, experiment repeated six times
  fold change in luciferase activity relative to the luciferase activity induced by the reference human GR polypeptide: 5.5 fold
